This data set has as its system fibrinogen.

Take human thrombin: the “SDS-PAGE analysis of hydrolysis of fibrinogen (Aα-strand)” value is recorded as “has a similar strength to human thrombin”.

The record behind these values is patent publication US20110071283.
